Data from patent US20220389097A1 (Genentech, published 2022).
Numbering of substitutions follows the chain as printed. In names and notes the source's numbering stands. Where no end group is shown, it is not given here.

B1: control antibody 1.16B8 (antibody, mouse IgG2a, kappa, V domains shown)
VH: EVQLVESGGGLVQPGRSLKLSCAASGFTFSDSAMAWVRQAPKKGLEWVATIIYDTSSTYYRDSVKGRFTISRDNAKSTLYLQMDSLRSEDTATYYCALFGVDVMDAWGQGASVTVSS
VL: DIQMTQTPSSMPASLGERVTISCRASQGISNYLNWYQQKPDGTIKPLIYYTSNLQSGVPSRFSGSGSGTDYSLTISSLEPEDFAMYYCQQYDSSPWTFGGGTKLEIKR
notes: also called CTL; 1.116B8
B2: 3.27H7 (rat anti-human TREM2 antibody) (antibody, V domains shown)
VH: EVQLVETGGSLVQPGGSLKLTCATSGFPFSNVWLHWIRRSPEKQLEWVAQIKARSDNYATYYAESVKGRFIVSRDDSKTTIYLQMNNLKEEDTAIYYCTGLDYWGQGVMVTVSS
VL: DVVLTQAPLSVSVTPGESASISCRSSRSLLTSKGITSLYWYLQKPGMSPHLLIYRMSNLASGIPDRFSGSGSETDFTLKISEVEPEDVGVYYCAQFLVYPYTFGAGTKLELK
notes: Whole IgG
B3: hPara.09.v2 Q100P (antibody, V domains shown)
VH: EVQLVESGGGLVQPGGSLKLSCATSGFPFSNVWLHWVRQASGKGPEWVAHIKAKSDNYATYYAESVKGRFTISRDDSKNTVYLQMNSLKTEDTAVYYCTDILEYWGQGTLVTVSS
VL: DVVMTQSPLSLPVTPGEPASISCRSSRSLLTSKGITSLYWYLQKPGQSPQLLIYRMSNLASGIPDRFSGSGSGTDFTLKISRVEAEDVGVYYCAQFLVYPYTFGPGTKVEIK
notes: Human IgG1 N297G in the cell assays; also called huPara.09.v2 Q100P; hPara.09 Q100P
B4: h3.10C2.v1 Q100P (antibody, V domains shown)
VH: EVQLVESGGGLVQPGGSLKLSCATSGFPFSNVWMHWVRQASGKGLEWIAHIKAKSDNYATYYAESVKGRFTISRDDSKTTIYLQMNSLKTEDTAVYYCTGLDYWGQGTTVTVSS
VL: B3 VL
notes: also called hu3.10C2.v1 Q100P
B5: T93H (antibody, V domains shown)
VH: EVQLVETGGSLVQPGKSLKLTCATSGFPFSNVWMHWVRQSPEKQLEWIAHIKAKSDNYATYYAESVKGRFTISRDDSKTSIYLQMNSLKEDDTAIYYCHGLDYWGQGVMVTVSS
VL: DTVLTQAPLSLSVTPGESASISCRSSKSLLGVRDITSLYWYLQKPGKSPQLLIYRMSNLASGVPDRFSGSGSETDFTLKISEVETEDVGVYYCAQFLRYPYTFGPGTKLELK
B6: 3.18E5 (rat anti-human TREM2 antibody) (antibody, IgG2a, V domains shown)
VH: B5 VH with S80T, D91A, H99T
VL: B5 VL with L11V, S26N, V32I
notes: Whole IgG
B7: T93E (antibody, V domains shown)
VH: B5 VH with H99E
VL: B5 VL
B8: 3.10C2 (rat anti-human TREM2 antibody) (antibody, V domains shown)
VH: B5 VH with H99T
VL: B5 VL
notes: Whole IgG with rat variable regions; also called clone 3.10C2
B9: 3.50G1 (rat anti-human TREM2 antibody) (antibody, IgG2a, V domains shown)
VH: B5 VH with E90D, H99T
VL: B5 VL with L11V, S26N, V32I, Y41F, K112Q
notes: Whole IgG

How the values were obtained:
[1] = target: T1, soluble human TREM2 (sTREM2) (human, UniProt Q9NZC2 19-157); assay: sandwich ELISA: antibody coated as capture, sTREM2 from BMDM supernatant, biotinylated 3.17A9 detection
T1 construct: also called soluble TREM2; TREM2 ectodomain
T1 sequence: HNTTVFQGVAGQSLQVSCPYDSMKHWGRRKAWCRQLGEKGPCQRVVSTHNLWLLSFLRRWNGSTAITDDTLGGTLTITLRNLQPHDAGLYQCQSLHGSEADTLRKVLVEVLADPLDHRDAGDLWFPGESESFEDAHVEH
Description: A human TREM2 ELISA assay was used to measure binding of more than forty antibodies to soluble TREM2 (sTREM2) as follows: test anti-hTREM2 antibodies were coated onto plate wells as capture reagents and a biotinylated IgV-reactive monoclonal antibody, 3.17A9, was used as the detection reagent. Antibody 1.16B8 was used as a control antibody to establish the standard for sTREM2 binding. Plates coated with test or control antibody were incubated with diluted culture supernatant from bone marrow-derived macrophage (BMDM) cultures from transgenic mice expressing hTREM2. sTREM2 is constitutively produced by the BMDM cultures expressing hTREM2 and shed into the culture supernatant. Measurements were recorded at 450 nm for detection and 570 nm for background. The 3.17A9/1.16B8 antibody pair was selected over reagents provided in the R&D Systems kit as the commercial reagents were not compatible with sTREM2 detection of some of the antibodies tested. Control antibody 1.16B8 light chain sequence is shown in SEQ ID NO: 170, and its heavy chain sequence is shown in SEQ ID NO: 171.

[2] = target: T2, cynomolgus TREM2 stalk antigen (cynomolgus monkey, UniProt A0A2K5UY34 159-204, not fully specified); assay: SPR (Biacore T200), 37 C; TREM2 stalk antigen on anti-human IgG1 Fc chip, antibody in solution
T2 construct: domain: stalk
T2 chain: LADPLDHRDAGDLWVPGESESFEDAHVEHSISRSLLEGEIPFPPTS
Description: (§1) Forty-six rat anti-human antibodies were tested for binding affinity to the hTREM2 and cynomolgus TREM2 stalk. Antibody binding affinities for hTREM2 stalk and cynomolgus TREM2 stalk were measured by surface plasmon resonance (SPR) using a Biacore™ T200 apparatus. TREM2 stalk antigens (human or cynomolgus) were immobilized on anti-human IgG1 Fc Biacore™ chips and anti-TREM2 antibody clones were bound to immobilized TREM2 at 37° C. Binding affinities, KD (nM) were measured and recorded.
(§2) Several antibodies were selected for binding measurements against cynomolgus TREM2 stalk. […] These four antibodies are referred to collectively below as the “3.10C2 group” of antibodies.

hTREM2 stalk antigen = target: T3, hTREM2 stalk antigen (human, UniProt Q9NZC2 129-174); assay: as above
T3 construct: also called human TREM2 stalk
T3 chain: T2 chain with V15F
Description: as §1, §2

human TREM2 on cells [3] = target: T4, human TREM2 on cells (human, UniProt Q9NZC2 19-230); assay: cell-based or functional assay
T4 sequence: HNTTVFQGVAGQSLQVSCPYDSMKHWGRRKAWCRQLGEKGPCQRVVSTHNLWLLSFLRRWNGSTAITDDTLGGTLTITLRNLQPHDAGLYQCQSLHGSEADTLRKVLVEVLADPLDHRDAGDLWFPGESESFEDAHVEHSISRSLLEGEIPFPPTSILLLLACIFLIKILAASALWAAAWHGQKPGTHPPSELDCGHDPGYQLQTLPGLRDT

human TREM2 on cells [4] = target: T4, human TREM2 on cells; assay: cell-based or functional assay; remark: listed apart in the source
[5] = target: T5, TREM2 peptide residues 148 to 165 (human); assay: crystal structure of the complex
T5 construct: Peptide of the crystal structures
T5 peptide: ESFEDAHVEHSISRSLLE

[6] = target: T6, soluble monomeric human TREM2 (human, UniProt Q9NZC2 19-174, limits assumed); assay: SPR (Biacore 8K) at 37 C, mutant IgG captured on anti-human Fab chip, soluble monomeric TREM2 as analyte, off-rate screen
T6 construct: Not the same as shed sTREM2; also called soluble monomeric TREM2
T6 sequence: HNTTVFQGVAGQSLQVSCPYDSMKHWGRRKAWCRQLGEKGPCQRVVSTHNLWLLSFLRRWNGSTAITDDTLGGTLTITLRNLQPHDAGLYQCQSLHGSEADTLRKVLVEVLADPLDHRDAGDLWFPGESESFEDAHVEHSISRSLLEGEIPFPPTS

159-175 = target: T7, 159-175 (also: biotinylated (site not given here)); assay: ELISA: biotinylated peptide captured on streptavidin plate, antibody detected with anti-mouse IgG-HRP
T7 construct: member of the group m13
T7 peptide: ISRSLLEGEIPFPPTSI
Excerpt: (§3) The antibody epitopes were mapped to the stalk region of human TREM2 using enzyme-linked immunosorbent assay (ELISA). Overlapping biotinylated peptides were captured in ELISA plates coated with streptavidin. The binding of antibodies to peptides was detected with an anti-mouse IgG conjugated to horseradish peroxidase.

[7] = target: T8, hTREM2 stalk peptide 146-169 (human, biotinylated); assay: as above
T8 peptide: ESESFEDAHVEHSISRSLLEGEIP
Excerpt: as §3

152-161 = target: T9, 152-161 (also: biotinylated (site not given here)); assay: as above
T9 construct: member of the group m13
T9 peptide: DAHVEHSISR
Excerpt: as §3

[8] = target: T10, hTREM2 stalk peptide 146-161 (human, also: biotinylated (site not given here)); assay: as above
T10 peptide: ESESFEDAHVEHSISR
Excerpt: as §3

[9] = target: T11, hTREM2 stalk peptide residues 129-175 (human, biotinylated); assay: as above
T11 construct: also called human TREM2 stalk peptide
T11 peptide: T2 chain with V15F
Excerpt: as §3

[10] = target: T12, hTREM2 stalk peptide 151-165 (human, also: biotinylated (position not given here)); assay: as above
T12 peptide: EDAHVEHSISRSLLE
Excerpt: as §3

[11] = target: T13, hTREM2 stalk peptide 149-168 (human, biotinylated); assay: as above
T13 peptide: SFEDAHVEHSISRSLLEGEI
Excerpt: as §3

139-158 = target: T14, 139-158 (biotinylated (site not given)); assay: as above
T14 construct: member of the group m13
T14 peptide: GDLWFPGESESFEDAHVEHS
Excerpt: as §3

129-148 = target: T15, 129-148 (biotinylated (site not given)); assay: as above
T15 construct: member of the group m13
T15 peptide: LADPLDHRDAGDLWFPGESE
Excerpt: as §3

155-169 = target: T16, 155-169 (also: biotinylated (site not given here)); assay: as above
T16 construct: member of the group m13
T16 peptide: VEHSISRSLLEGEIP
Excerpt: as §3

154-164 = target: T17, 154-164 (also: biotinylated (site not given here)); assay: as above
T17 construct: member of the group m13; also called hTREM2 stalk 154-164
T17 peptide: HVEHSISRSLL
Excerpt: as §3

Binder	Kd [2] [nM]	Kd (hTREM2 stalk antigen) [nM]	A620 absorbance (ELISA) (159-175) [A620]	A620 absorbance (ELISA) [7] [A620]	A620 absorbance (ELISA) (152-161) [A620]	A620 absorbance (ELISA) [8] [A620]	A620 absorbance (ELISA) [9] [A620]	A620 absorbance (ELISA) [10] [A620]	A620 absorbance (ELISA) [11] [A620]	A620 absorbance (ELISA) (139-158) [A620]	A620 absorbance (ELISA) (129-148) [A620]	A620 absorbance (ELISA) (155-169) [A620]	A620 absorbance (ELISA) (154-164) [A620]	also measured
B1														binding result [1]: binds
B2	0.26	0.22												
B3														EC50, average X04 plaque intensity, human iPSC-derived microglia plaque assay (FIG. 24C) (human TREM2 on cells [3]): 500 nM; EC50, survival of iPSC-derived microglia (FIG. 23E) (human TREM2 on cells [3]): 0.61 nM; EC50, total Abeta plaque intensity, human iPSC-derived microglia plaque assay (FIG. 24B) (human TREM2 on cells [3]): 120 nM; EC50, Jurkat NFAT luciferase reporter cells (human TREM2 on cells [4]): 0.0178 µg/mL; IC50, TREM2 shedding inhibition in Jurkat-NFAT reporter cells (sTREM2 ELISA) (human TREM2 on cells [4]): 0.123 µg/mL; binding result [5]: binds
B4														binding result [5]: binds
B5														fold improvement (lower dissociation rate kd) relative to wild-type 3.10C2 [6]: 1.4 fold
B6	0.3	0.26	0.07	1.48	0.15	2.89	1.65	2.42	1.46	0.51	0.28	0.14	0.4	
B7														fold improvement (lower dissociation rate kd) relative to wild-type 3.10C2 [6]: 2 fold
B8	0.25	0.24	0.07	1.65	0.12	2.95	1.91	2.52	2.16	0.37	0.19	0.13	0.39	
B9	0.57	0.61	0.08	1.88	0.14	2.52	2.13	2.32	1.28	0.43	0.19	0.13	0.26	
